Assay results published in the nanobody polyreactivity screen of Harvey et al. (2022).

Assay: yeast display, Sf9 membrane polyspecificity reagent, FACS + sequencing; frameworks hold sequencing errors
In short: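 Nanobodies from a synthetic yeast display library (Saccharomyces cerevisiae BJ5465), induced 36–48 hours with galactose, were stained 1 hour at 4 °C with 10% biotinylated, detergent-solubilized Sf9 membrane reagent, enriched on streptavidin microbeads, then FACS-sorted. Anti-HA (expression) and streptavidin (reagent binding) fluorescence set low and high (top ~1%) gates. Polyreactivity labels come from the gate of origin. Genes were colony-PCR amplified, MiSeq 2 × 250 sequenced and filtered by CDR length.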

| Sequence | polyreactivity (PSR sort gate) |
| --- | --- |
| QVQLVESGGGLVQAGGSLRLSCAASGSARYAMGWYRQAPGKERELVAAISRRGGSTFYADSVKGRFTISRDNAKNTVYLQMNSLKPEDTAVYYCAADGRISYDYWGQGTQVTVSS | low polyreactivity |
| QVQLEDSGGGLVQAGGSLPLSCAASGGTFTDYAMGWYRQAPGKERELVAAISSVGSTNYADSVKGRFTISRDNAKNTVYLQMNSLKPEDTAVYYCAVDYGRAVQVDSITYDFNYWGQGTQVNVSS | low polyreactivity |
| QVQLVESGGGLVQAGGSLRLSCAASGSIFRPYVMGWYRQAPGKERELVAAISSRGGDTYYADSVKGRFTISRDNAKNTVYLQMNSLKPEDTAVYYCAAVEFRDSTFVVVSSPTSKSDYWGQGTQVTVSS | low polyreactivity |
| QVQLVESGGGLVQAGGSLLLSCAASGFTFGSYAMGLYRQAPGKERELVARITRGGNTYYADSVKGRFTISRDNAKNTVYLQMNSLKPVDTAVYYCNAYGRVSPLYQPYGNDAQGYYWGQGTQVTVSS | high polyreactivity |
| QVQLVESGGGLVQAGGILRLSCAASGRTFFSNAMGWYRQAPGKEREFVAAISNGDNTYYADSVKGRFTISSDNAKNTVYLQMNSLKPDDTAVYYCAADQYWSWIYYPVVEYDYWGLGTQVTVSS | low polyreactivity |
| QVQLVESGGGLVQAGGSLRLSCAASGSIFYHYAMGWYRQAPGKDRELVADITQSGGTTDYADSVKGRFTISRYNAKNTVYLQMNSLKPEDTAVYYCAADGDTTSPTYYIFWSGEFDYWGQGNQVTVSS | low polyreactivity |
| QVQLVESGGGLVQAGGSLRLSCAASGSIFDGNAMGWYRQAPGKERELVAAISGGGRTYYADSVKGRFTISRDNAKNTVYLQMNSLKPEDTAVYYCAAAYTFYVYGSYKVTLDYWGQGTQVTVSS | low polyreactivity |
| QVQLVESGGGLVQAGGSLRLSCAASGRTFGLNAMGWYRQAPGKERELVAVITSSGGSTYYADSVKGRFTISRDNAKNTVYLQMNSLKPEDTAVYYCAARPPYTDSSPGERTYDYWGQGTQVTVSS | low polyreactivity |
| QVQLVESGGGLVQAGGSLRLSCAASGSIFFPYAMGWYRQAPGKERELVARISWGAGRTYYADSVKGRFTISRDNAKNTVYLQMNSLKPEDTAVYYCAARDRTRYAGYNYWGQGTQVTVSS | high polyreactivity |
| QVQLVESGGGLVQAGGSLRLSCAASGSTFGFYTMGWYRPAPGKERELVAAISWSTGRTYYADSVKGRFTISRDNAKNTVYLQMNSLKPEDTAVYYCAARAVDKYRFGGRYDYWGQGTQVTVSS | low polyreactivity |
| QVQLVESGGGLVQAGGSLRLSCAASGIIFVRYAMGWYRQAPGKERELVAAITWRGSTYYADSVKGRFTISRDNAKNTVYLQMNSLKPEDTAVYYCAAVKPHYTSFRDYYCGQGTQVTVSS | high polyreactivity |
| QVQLVESGGGLVQAGGSLRLSCAASGSIFRVYAMGRYRQAPGKERELVATISGSAGRTYYADSVKGRFTISRDNAKNTVYLQMNSLKPEDTAVYYCAARWYKEYYWGQGTQVTVSS | high polyreactivity |
| QVQLVESGGGLVQAGGSLRLSCADSGRIITVYDMGWYRQAPGKEREYVAAISDTDSSTYADSVKGRFTISRDNAKNTVYLQMNSLKPEDTAVYYCNAVGDIFGRVSTEYEYWGQGTQVTVSA | low polyreactivity |
| QVQLVESGGGLVQAGGSLRLSCAASGRTFYSYAMGWYRQAPGKERELVAAINSGGDTYYADSVKGRFTISRDNAKNSVYLQMNSLKAEDSAVYYCAADYYWEMDSWGQGTQVTVSS | low polyreactivity |
| QVQLVESGGGLVQAGGSLRLSCAASGGTFPFNAMGRYRQAPGKEREFVAAISFRGGSTYYADSVKGRFTISRDNAKNTVYLQMNSLKPEDTAVYSCAAYRLRPRNGVYRMDYWGQGTQVTVSS | high polyreactivity |
| QVQLVESGGGLVQAGGSLRLSCAASGYFDLNAMGWYRQAPGKERELVAAITDGGSTNYADSVKGRFTISRDNAKNTVYLQMNSLKPEDTAVYYCAADRGHTILHGGHWGQGTQVTVSS | low polyreactivity |
| QFQLVESGGGLVQAGGSLRLSCAASGSIFQSYAMVWYRQAPGKERELVAAITRSGGRTYYADSVKGRFTISRDNAKNTVYLQMNSLKPEDTAVYFCAAFGWGYGYWGQGTQVTVSS | high polyreactivity |
| QVQLVESGGGLVQAGGSLRLSCAASGSIFSYYVMGWYRQAPGKERELVAAISWSGGSTYYADSVKGRFTISRDNAKNTVYLQMNSLKPEDTAVYYCAAGTYPYYWGQGTQVTVSS | low polyreactivity |
| QVQLVESGGGLVQAGGSLRLSCAASGSTFSPYAMGWYRQAPGKEREIVAAISWGDGSTYYADSVKGRFTISRDNAKNTVYLQINSLKPEDTAVYYCNVKPSARGAPLYDYWGQGTQVTVSS | high polyreactivity |
| QVQLVESGGGLVQAGGSLRLSCAASGFIFSIYAMGLYRQAPGTERELVAGIDNGGGTYYADSVKGRFTISRDNAKNTVYLQMNSLKPEDTAVYYCAADTYSIGELYDYWGQGTQVNVSS | low polyreactivity |
| QVQLVESGGGLVQAGGSLRLSCAASGRTFGDYAMGWYRQAPGKERELVAAISSSGGRTYYADSVKGRFTISRDNAKNTVYLQMNSLKPEDTAVYYCATDYLYVYGFEYYYWGQGTQVTVSS | high polyreactivity |
| QVQLVESGGGLVQAGGSLRLSCAASGFTLFGYAMGWYRQAPGKERELVAAISKDGGSTYYADSVKGRFTISRDNAKNTVYLQMNSLKPEDTAVYSCAARVKRPQTGYDRRYGYWGQGTQVTVSS | high polyreactivity |

| Sequence | polyreactivity (PSR sort gate) |
| --- | --- |
| QVQLVESGGGLVQAGGSLRLSCAASGSIFVEYAMGWYRQAPGKERELVAAISYSGSSTNYADSVKGRFTISRDNAKNTVYLQMNSLKPEDTAVYYCNADGTGGEQKPYYELDYWGQGTQVTVSS | low polyreactivity |
| QVQLVESGGGLVQAGGSLRLSCAASGITFIRYAMGWYRQAPGKERELVAVITRSGGRTYYADSVKGRFTISRDNAKNTVYLQMNILKPEDTAVYYCAARAYGYDEYEYWGQGTQVTVSS | high polyreactivity |
| HVQLQESGGGLVQAGGSLRLSCAASGSIFQATYMGWYRQAPGKEREFVASITNGSITNYADSVKGRFTIGRDNEKDTLYLQMNSLKPEDSAVYYCAVDRQYIPAFHYWGQGTQVTVSS | low polyreactivity |
| QVQLVESGGGLVQAGGSLRLSCAASGSTFTFYAMGWYRQAPGKERELVATISSSGGSTYYADSVKGRFTFSRDNAKKTVYLQMNSLKPEDTAVYYCAADPSIVDGEYGYWGQGTQVTVSS | low polyreactivity |
| QVQLVESGGGLVQAGGSLRLSCAASGSTFLRYDMGWYRQAPGKDRELVAAINWSGGGTSYADSVKGRFTISRDNAKNTVYLQMNSLKPEDTEVYYCAAYFRYSYYWSEYWGQGTQVTVSS | high polyreactivity |
| QVQLVESGGGLVQAGGSLRLSCAASGSIFPYYVMGWYRQAPGKERELVAAISWSGASTYYADSVKGRFTISRDNAKNTVYLQMNSLKPEDTAVYYCAKYSSHFENDYWGQGTQVTVSS | low polyreactivity |
| HVQLVESGGGLVQAGGSLRLSCAASGSIFYYNVMGWYRQAPGKERELVAAIDIDGSTYYADSVKGRFTISRDNAKNTVYLQMNSMKPEDTAVYYCNAQAPYWFSFYYDHKYDYWGQGTQVTVSS | low polyreactivity |
| QVQLVESGGGLVQAGGSLRLSCAASGYTFVDYAMGWYRQAPGKERELVAAISSSGARTYYAYSVKGRFTISRDNAKNSVYLQMNSLKAEDTAVYYCNTPRPYEITTPEYYYWGQGTQVTVSS | high polyreactivity |
| QVQLVESGGGLVQARGSLRLSCAASGFGWYAMGWYRQAPGKEREFVAAISRGGGSTYYADSVKGRFTISRDNAKNTVYLQMNSLKQEDTAVYYCAAVYYRRISQGDTQTYYQYNYWGQGTKVTVSS | high polyreactivity |
| QVHLVESGGGLVQAGGSLRLSCAASGRILNWNAMGWYRQAPGKDREFVAAIRTSGGDSTSYADSVKGRFTISRDNAKNTVYLQMTSLKPEDTAVFDCAKTVWWYYRYPFDYWGQGTQVTVSS | low polyreactivity |
| QVQLVESGGGLVQAGGSLRLSCAASGFTCARYALGWYRQAPGQERELVASITWNGGRTYYAASVKGRFTISRDNAKNTVYLQMNSLKPEDTAVYYCAKDTRYTRYEYWGQGTQVTVSS | high polyreactivity |
| QVQLVESGGGLVQAGGSLRLSCAASGSTLYSYAMGWYRQAPGKERELVAAIRRDSGRTYYADSVKGRFTISRDNEKNTVYLQMNSLKPEDTAVYYCAAAYRLGYHKYYYWGQGTQVTVSS | high polyreactivity |
| QVQLVESGGGLVQAGGSLRLSCAASGFIFGYNAMGWYRQAPGKERELVAAITSRGDRTYYADSVKGRFTISRDNAKNTVYLQMNSLKPEDTAVYYCAKATRGYRSPYGSIGYYYWGLGTQVTVSS | high polyreactivity |
| QVQLVESGGCLVQAGGSLRLSCPASGFTLPANGMGWYRQAPGKERELVAAISFIAGSTYYADSVKGRFTISRDNAKNTVYLQMNSLKPEDTEVYYCATQFPPSTIYDYWGQGSQVTVSS | low polyreactivity |
| QVQLVESGGGLVQAGGSLRLSCAASGSIFPRYAMGWYRQAPGKERELVAAITSSAGSTYYADSVKGRFTISRDNAKNTVYLQMNSLKPEDTAVYYCAASGPWSYWYDYWGQGTQVTVSS | low polyreactivity |
| QVQLVETGGGLVQAGGSLRLSCAASGSTFSDYVMGWYRQAPGKERELVAAITWSGGSTYYADSVKGRFTISRDNAKNTVYLQMNSLKPEDTAVYYCAADPTASGHFLGQVDYWGQGTQVTVSS | high polyreactivity |
| QVQLVESGGGLLQAGGSLRLSCAASGNIFGWYAMGWYRQAPGKERELVAAISSGGRTNYADSVKGRFTISRDNAKNTVYLQMNSLKPEDTAVYYCATPLQQLYGYWGQGTQVSVSS | low polyreactivity |
| QVQLVESGGGLVQAGGSLRLSCAASGSTLIIYAMGWYRQAPGKERELVATISWSGGNTYYADSVKGRFTISRDNAKYTVYLQMNSLKPEDTAVYYCAARWYYYPLLYDYWGQGTQVTVSS | low polyreactivity |
| QVQLVESGGGLVQAGGSLRLSCAASGSTFTYYAMGWYRQAPGKERELVAAITGRGGRTYYADSVKGRFTISRDNAKNSVYLQMNSLKREDTAVYYCNTVGLNYGYQYSNGYWGQGSQVTVSS | high polyreactivity |
| QEQLQERGGGLVQAGGSLRLSCAASGSIFKVVDMGLYRQAPAKEREFVATIGEGGNTYYADSVKGRFTISRDNAKNTVYLQMNSLKPEDTAVYFYAVVLGTYYRYTYWGQGTQVTVSS | low polyreactivity |
| QVQLVESGGGLVQAGGSLRLSCAASGSTFVGYAMGWYRQAPGKERELVADIDSIGGSTYYADSVKGRFTISRDNAKNTVYLQMNSLKPEDTAVYYCAARRFDTALVLYDYWGQGTQVTVSS | low polyreactivity |
